These results are taken from patent US20220365100A1 (Janssen / Centocor, published 2022).

Residue numbers refer to the chain shown, from its start.

The target of assay [1] is T1, recombinant IL-17 (human IL-17, interleukin 17A) (human, UniProt Q16552 24-155).
T1 construct: Serial dilutions of recombinant IL-17 from 1 ng/ml in ELISA; also called IL-17A; CTLA8
The assay can be described thus: sandwich ELISA: AF-317 coated as capture, mAb4538 as detection, IL-17A titrated.

Assay [2] concerns the target T1, recombinant IL-17 (human IL-17, …). Description: competition in sandwich ELISA: IL-17A mixed with 10ug/ml modulator, free IL-17A detected with DuoSet DY317 (MAB317 capture, BAF317 detection).

T1 sequence (Q16552 24-155 limits assumed): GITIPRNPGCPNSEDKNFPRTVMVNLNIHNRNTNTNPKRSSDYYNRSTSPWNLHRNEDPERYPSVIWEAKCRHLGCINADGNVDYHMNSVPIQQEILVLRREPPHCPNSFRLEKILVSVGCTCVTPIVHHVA

B1: mAb4538 (antibody, human IgG1, lambda, V domains shown)
VH: QVQLQQSGPGLVKPSQTLSLTCAISGDSVSSSSAAWGWIRQSPSRGLEWLGRISYRSKWYNDYAVSVKSRITINPDTSKNQFSLQLNSVTPEDTAVYYCAREVDSMYYSYFDIWGQGTLVTVSS
VL: EIVLTQSPATLSLSPGERATLSCRASQNVWAFYLAWYQQKPGQAPRLLIYGASNRATGIPARFSGSGSGTDFTLTISSLEPEDFAVYYCQQYRSTLSLTFGQGTKVEIKG
notes: also called detection agent; anti-IL-17 antibody from Janssen Biotech, Inc
For the molecule B1, in assay [1], the binding result is given as “binds”.

B2: mAb732 (antibody, human IgG1, lambda, V domains shown)
VH: B1 VH
VL: B1 VL with Q90T, R93Y, T95S, L96P
notes: also called LM modulator of IL-17
For B2, the binding result in assay [2] is “binds”.

B3: mAb7024 (antibody, human IgG1, lambda, V domains shown)
VH: QVQLVQSGAEVKKPGSSVKVSCKASGGTFSSYAISWVRQAPGQGLEWMGSIIPWFGTTNYAQKFQGRVTITADESTSTAYMELSSLRSEDTAVYYCARDSEYYFDHWGQGTLVTVSS
VL: DIQMTQSPSSVSASVGDRVTITCRASQGISNWLNWYQQKPGKAPKLLIYAASSLQSGVPSRFSGSGSGTDFTLTISSLQPEDFATYYCQQYSDDPTFGQGTKVEIKG
notes: as for B2
As to B3, the binding result in assay [2] was “binds”.
